Patent US20140087995A1 (published 2014)
Numbered stars: 1 amine (or outer) side, 2 acyl side, 3 side chain; on linkers, the order of the positions; unused ones are H or OH. Bridge positions count the residues as written; N and C are the ends. Side chains are listed from the residue outwards. Ends that are not written are not given here. * marks the point of attachment. C20 diacid = O=C(O)CCCCCCCCCCCCCCCCCCC(=O)*; γGlu = O=C(O)[C@H](CCC(=O)[*:2])N[*:1]; AEEA = NCCOCCOCC(=O)O

B1: N^ε1-[2-[2-[2-[[(4S)-4-carboxy-4-(19-carboxynonadecanoylamino)butanoyl]amino]ethoxy]ethoxy]acetyl]-[Arg14,Arg17,Pro21,Pro27]-h-amylin (peptide)
peptide: K([AEEA-γGlu-C20 diacid])CNTATCATQRLARFLRHSSPNFGAIPSSTNVGSNTY-NH2
modifications: disulfide 2-7; N-terminus assumed
SMILES: CC[C@H](C)[C@H](NC(=O)[C@H](C)NC(=O)CNC(=O)[C@H](Cc1ccccc1)NC(=O)[C@H](CC(N)=O)NC(=O)[C@@H]1CCCN1C(=O)[C@H](CO)NC(=O)[C@H](CO)NC(=O)[C@H](Cc1c[nH]cn1)NC(=O)[C@H](CCCNC(=N)N)NC(=O)[C@H](CC(C)C)NC(=O)[C@H](Cc1ccccc1)NC(=O)[C@H](CCCNC(=N)N)NC(=O)[C@H](C)NC(=O)[C@H](CC(C)C)NC(=O)[C@H](CCCNC(=N)N)NC(=O)[C@H](CCC(N)=O)NC(=O)[C@@H](NC(=O)[C@H](C)NC(=O)[C@@H]1CSSC[C@H](NC(=O)[C@@H](N)CCCCNC(=O)COCCOCCNC(=O)CC[C@H](NC(=O)CCCCCCCCCCCCCCCCCCC(=O)O)C(=O)O)C(=O)N[C@@H](CC(N)=O)C(=O)N[C@@H]([C@@H](C)O)C(=O)N[C@@H](C)C(=O)N[C@@H]([C@@H](C)O)C(=O)N1)[C@@H](C)O)C(=O)N1CCC[C@H]1C(=O)N[C@@H](CO)C(=O)N[C@@H](CO)C(=O)N[C@H](C(=O)N[C@@H](CC(N)=O)C(=O)N[C@H](C(=O)NCC(=O)N[C@@H](CO)C(=O)N[C@@H](CC(N)=O)C(=O)N[C@H](C(=O)N[C@@H](Cc1ccc(O)cc1)C(N)=O)[C@@H](C)O)C(C)C)[C@@H](C)O
notes: Analogue of human amylin; also called compound 82
B2: N^ε1-[2-[2-[2-[[(4S)-4-carboxy-4-(19-carboxynonadecanoylamino)butanoyl]amino]ethoxy]ethoxy]acetyl]-[Arg17,Pro21,Pro27,Arg34]-h-amylin (peptide)
peptide: K([AEEA-γGlu-C20 diacid])CNTATCATQRLANFLRHSSPNFGAIPSSTNVGRNTY-NH2
modifications: disulfide 2-7; N-terminus assumed
SMILES: CC[C@H](C)[C@H](NC(=O)[C@H](C)NC(=O)CNC(=O)[C@H](Cc1ccccc1)NC(=O)[C@H](CC(N)=O)NC(=O)[C@@H]1CCCN1C(=O)[C@H](CO)NC(=O)[C@H](CO)NC(=O)[C@H](Cc1c[nH]cn1)NC(=O)[C@H](CCCNC(=N)N)NC(=O)[C@H](CC(C)C)NC(=O)[C@H](Cc1ccccc1)NC(=O)[C@H](CC(N)=O)NC(=O)[C@H](C)NC(=O)[C@H](CC(C)C)NC(=O)[C@H](CCCNC(=N)N)NC(=O)[C@H](CCC(N)=O)NC(=O)[C@@H](NC(=O)[C@H](C)NC(=O)[C@@H]1CSSC[C@H](NC(=O)[C@@H](N)CCCCNC(=O)COCCOCCNC(=O)CC[C@H](NC(=O)CCCCCCCCCCCCCCCCCCC(=O)O)C(=O)O)C(=O)N[C@@H](CC(N)=O)C(=O)N[C@@H]([C@@H](C)O)C(=O)N[C@@H](C)C(=O)N[C@@H]([C@@H](C)O)C(=O)N1)[C@@H](C)O)C(=O)N1CCC[C@H]1C(=O)N[C@@H](CO)C(=O)N[C@@H](CO)C(=O)N[C@H](C(=O)N[C@@H](CC(N)=O)C(=O)N[C@H](C(=O)NCC(=O)N[C@@H](CCCNC(=N)N)C(=O)N[C@@H](CC(N)=O)C(=O)N[C@H](C(=O)N[C@@H](Cc1ccc(O)cc1)C(N)=O)[C@@H](C)O)C(C)C)[C@@H](C)O
notes: Analogue of human amylin; also called compound 78
B3: N^ε1-[2-[2-[2-[[(4S)-4-carboxy-4-(19-carboxynonadecanoylamino)butanoyl]amino]ethoxy]ethoxy]acetyl]-[Arg17,Pro21,Pro27,His34]-h-amylin (peptide)
peptide: K([AEEA-γGlu-C20 diacid])CNTATCATQRLANFLRHSSPNFGAIPSSTNVGHNTY-NH2
modifications: disulfide 2-7; N-terminus assumed
SMILES: CC[C@H](C)[C@H](NC(=O)[C@H](C)NC(=O)CNC(=O)[C@H](Cc1ccccc1)NC(=O)[C@H](CC(N)=O)NC(=O)[C@@H]1CCCN1C(=O)[C@H](CO)NC(=O)[C@H](CO)NC(=O)[C@H](Cc1c[nH]cn1)NC(=O)[C@H](CCCNC(=N)N)NC(=O)[C@H](CC(C)C)NC(=O)[C@H](Cc1ccccc1)NC(=O)[C@H](CC(N)=O)NC(=O)[C@H](C)NC(=O)[C@H](CC(C)C)NC(=O)[C@H](CCCNC(=N)N)NC(=O)[C@H](CCC(N)=O)NC(=O)[C@@H](NC(=O)[C@H](C)NC(=O)[C@@H]1CSSC[C@H](NC(=O)[C@@H](N)CCCCNC(=O)COCCOCCNC(=O)CC[C@H](NC(=O)CCCCCCCCCCCCCCCCCCC(=O)O)C(=O)O)C(=O)N[C@@H](CC(N)=O)C(=O)N[C@@H]([C@@H](C)O)C(=O)N[C@@H](C)C(=O)N[C@@H]([C@@H](C)O)C(=O)N1)[C@@H](C)O)C(=O)N1CCC[C@H]1C(=O)N[C@@H](CO)C(=O)N[C@@H](CO)C(=O)N[C@H](C(=O)N[C@@H](CC(N)=O)C(=O)N[C@H](C(=O)NCC(=O)N[C@@H](Cc1c[nH]cn1)C(=O)N[C@@H](CC(N)=O)C(=O)N[C@H](C(=O)N[C@@H](Cc1ccc(O)cc1)C(N)=O)[C@@H](C)O)C(C)C)[C@@H](C)O
notes: Analogue of human amylin; also called compound 76
B4: N^ε1-[2-[2-[2-[[(4S)-4-carboxy-4-(19-carboxynonadecanoylamino)butanoyl]amino]ethoxy]ethoxy]acetyl]-[Arg17,Pro21,Pro27,Pro28,Pro31]-h-amylin (peptide)
peptide: K([AEEA-γGlu-C20 diacid])CNTATCATQRLANFLRHSSPNFGAIPPSTPVGSNTY-NH2
modifications: disulfide 2-7
notes: Analogue of human amylin; also called compound 53

Each binder was assayed against T1, rat calcitonin receptor (rat, UniProt P32214 25-516) (assay: IC50 on rat CTR divided by IC50 on rat amylin receptor (Assays VIII/VI)).
T1 construct: whole, on cells; Used as membranes prepared from BHK tk'ts 13 cells transiently transfected with the rat calcitonin receptor (Assay VIII); also called rCTR; rat calcitonin (a) receptor
T1 sequence (looked up): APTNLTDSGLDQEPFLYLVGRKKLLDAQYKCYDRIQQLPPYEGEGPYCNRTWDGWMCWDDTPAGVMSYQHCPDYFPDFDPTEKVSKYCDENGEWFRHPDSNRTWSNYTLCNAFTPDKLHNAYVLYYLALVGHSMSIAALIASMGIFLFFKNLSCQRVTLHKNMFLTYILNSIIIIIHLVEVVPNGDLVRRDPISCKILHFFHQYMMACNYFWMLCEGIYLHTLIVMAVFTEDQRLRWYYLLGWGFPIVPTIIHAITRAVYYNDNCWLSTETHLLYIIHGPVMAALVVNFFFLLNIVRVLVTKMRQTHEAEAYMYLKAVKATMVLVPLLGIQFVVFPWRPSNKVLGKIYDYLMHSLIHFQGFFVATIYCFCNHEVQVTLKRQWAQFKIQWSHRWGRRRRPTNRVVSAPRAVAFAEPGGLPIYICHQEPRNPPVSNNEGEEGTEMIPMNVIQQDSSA

Row | Binder | Ratio rCT/rAmylin binding
1 | B1 | 87
2 | B2 | 69.9
3 | B3 | 56.8
4 | B4 | 130

Each binder was assayed against T1, rat calcitonin receptor (assay: SPA competition with 125I-calcitonin, membranes of BHK cells with rat CTR (Assay VIII)).

Row | Binder | IC50
5 | B1 | 143 nM
6 | B2 | 90.6 nM
7 | B3 | 38.9 nM
8 | B4 | 10.9 nM

Each binder was assayed against T2, human calcitonin receptor (human, UniProt P30988 25-474) (assay: IC50 on human CTR divided by IC50 on human amylin receptor (Assays VII/V)).
T2 construct: whole, on cells; Used as membranes prepared from a BHK tk'ts 13 cell line stably transfected with the human calcitonin receptor (Assay VII); also called hCTR; hCT
T2 sequence (looked up): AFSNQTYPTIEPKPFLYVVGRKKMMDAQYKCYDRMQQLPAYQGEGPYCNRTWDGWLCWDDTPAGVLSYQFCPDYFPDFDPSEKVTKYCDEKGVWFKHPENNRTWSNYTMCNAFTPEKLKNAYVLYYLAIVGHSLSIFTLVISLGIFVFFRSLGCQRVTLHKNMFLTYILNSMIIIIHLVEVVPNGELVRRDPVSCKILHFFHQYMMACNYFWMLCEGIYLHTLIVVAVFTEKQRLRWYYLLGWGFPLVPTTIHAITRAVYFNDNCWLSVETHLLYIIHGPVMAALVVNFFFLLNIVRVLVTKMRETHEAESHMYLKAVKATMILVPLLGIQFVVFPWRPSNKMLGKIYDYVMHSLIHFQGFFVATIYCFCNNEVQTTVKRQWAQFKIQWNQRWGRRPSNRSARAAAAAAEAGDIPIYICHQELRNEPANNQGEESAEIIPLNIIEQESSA
Protocol: The resulting pellet was resuspended, homogenized and centrifuged (20.000 rpm, 15 min) in a buffer containing 20 mM Na-HEPES and 0.1 mM EDTA (pH 7.4, buffer 2). The resulting pellet was resuspended in buffer 2 and protein concentration was measured (BCA protein Assay, Pierce). The homogenate was kept cold during the whole procedure. The membranes were kept at −80° C. until use. The assay was performed in a 384 well Optiplate (PerkinElmer) in a total volume of 40 ul. Membranes were mixed with SPA beads. Final concentration of membranes 35 ng/μL final and SPA beads was 0.05 mg/well. Test-compounds were dissolved in DMSO and further diluted in assay buffer (50 mM Hepes, pH 7.4, 1 mM CaCl2, 5 mM MgCl₂, 0.1% OA and 0.02% Tween20). […] The final mixture was incubated with shaking at 400 rpm for 120 min at 25° C. prior to centrifugation (1500 rpm, 10 min). Samples were analyzed on TopCounter™ (Packard). The IC₅₀ was calculated using (one site binding competition analysis) GraphPad Prism5 as a measure of receptor affinity.
Membranes were prepared in the following way; the cells were rinsed with PBS and incubated with Versene for approximately 5 min before harvesting. The cells were flushed with PBS and the cell-suspension was centrifuged for 5 min at 1000 rpm. Cells were homogenized (Ultrathurrax) in a buffer containing 20 mM Na-HEPES and 10 mM EDTA (pH 7.4) and centrifuged at 20.000 rpm for 15 min. The resulting pellet was resuspended, homogenized and centrifuged (20.000 rpm, 15 min) in a buffer containing 20 mM Na-HEPES and 0.1 mM EDTA (pH 7.4, buffer 2). The resulting pellet was resuspended in buffer 2 and protein concentration was measured (BCA protein Assay, Pierce). The homogenate was kept cold during the whole procedure. The membranes were kept at −80° C. until use. Assay was performed in a 384 well Optiplate (PerkinElmer) in a total volume of 40 ul. Membranes were mixed with SPA beads.

Row | Binder | Ratio hCT/hAmylin binding
9 | B1 | 140
10 | B2 | 60.7
11 | B3 | 80
12 | B4 | 104

These binders were tested against T3, rat amylin receptor (rat calcitonin receptor + rat RAMP 3) (rat, UniProt P32214 25-516; Q9JJ73 23-147) (assay: SPA competition with 125I-rat amylin, membranes of BHK cells with rat CTR + rat RAMP3 (Assay VI)).
T3 construct: whole, on cells; Used as membranes prepared from BHK tk'ts 13 cells transiently transfected with rat calcitonin receptor and rat RAMP 3 (Assay VI); also called rAmylin-R; rat amylin 3(a) receptor
T3 sequence (looked up) 1: T1 sequence (looked up)
T3 sequence (looked up) 2: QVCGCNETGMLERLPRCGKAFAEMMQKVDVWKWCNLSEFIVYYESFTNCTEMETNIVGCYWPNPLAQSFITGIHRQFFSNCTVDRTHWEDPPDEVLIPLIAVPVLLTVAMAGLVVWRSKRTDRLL
Protocol: The binding assay was performed using scintillation proximity assay (SPA) beads (RPNQ0001) from PerkinElmer and cell membranes from the Amylin 3(a)/CRE-luc cells (as described in Assay (II)) were used. Membranes were prepared in the following way; the cells were rinsed with PBS and incubated with Versene for approximately 5 min before harvesting. The cells were flushed with PBS and the cell-suspension was centrifuged for 5 min at 1000 rpm. Cells were homogenized (ultrathurrax) in a buffer containing 20 mM Na-HEPES and 10 mM EDTA (pH 7.4) and centrifuged at 20.000 rpm for 15 min. The resulting pellet was resuspended, homogenized and centrifuged (20.000 rpm, 15 min) in a buffer containing 20 mM Na-HEPES and 0.1 mM EDTA (pH 7.4, buffer 2). The resulting pellet was resuspended in buffer 2 and protein concentration was measured (BCA protein Assay, Pierce). The homogenate was kept cold during the whole procedure. The membranes were kept at −80° C. until use. The assay was performed in a 384 well Optiplate (PerkinElmer) in a total volume of 40 ul. Membranes were mixed with SPA beads. Final concentration of membranes 35 ng/μL final and SPA beads was 0.05 mg/well. Test-compounds were dissolved in DMSO and further diluted in assay buffer (50 mM Hepes, pH 7.4, 1 mM CaCl2, 5 mM MgCl₂, 0.1% OA and 0.02% Tween20). […] The final mixture was incubated with shaking at 400 rpm for 120 min at 25° C. prior to centrifugation (1500 rpm, 10 min). Samples were analyzed on TopCounter™ (Packard). The IC₅₀ was calculated using (one site binding competition analysis) GraphPad Prism5 as a measure of receptor affinity.
Cells were grown in DMEM with 10% FBS and 1% Pen/Strep. Approximately 48 hours after transfection, the cells were harvested and membranes were prepared.

Row | Binder | IC50
13 | B1 | 1.64 nM
14 | B2 | 1.3 nM
15 | B3 | 0.686 nM
16 | B4 | 0.084 nM
